The values that follow are results of earlier work, collected in US8747397B2, “Cryotreatment pellet” (CPSI Holdings LLC, priority 2009, dated 2014).

For this data set, the system named is prostate cancer cell.

B1: TNF-Related Apoptosis-Inducing Ligand (protein, UniProt P50591 1-281, looked up)
Tumor necrosis factor ligand …: MAMMEVQGGPSLGQTCVLIVIFTVLLQSLCVAVTYVYFTNELKQMQDKYSKSGIACFLKEDDSYWDPNDEESMNSPCWQVKWQLRQLVRKMILRTSEETISTVQEKQQNISPLVRERGPQRVAAHITGTRGRSNTLSSPNSKNEKALGRKINSWESSRSGHSFLSNLHLRNGELVIHEKGFYYIYSQTYFRFQEEIKENTKNDKQMVQYIYKYTSYPDPILLMKSARNSCWSKDAEYGLYSIYQGGIFELKENDRIFVSVTNEHLIDMDHEASFFGAFLVG
notes: cytotoxic agent, apoptosis-inducing ligand applied in combination with freezing
For B1, the cell death result (sub-lethal dose applied in vitro in combination with freezing) is “complete prostate cancer cell death occurs”. Also, the critical death temperature (sub-lethal dose in combination with freezing, reduced from −40° C. (freezing alone)) is −10 °C.
